Experimental data: PMC3501490 (2012)

Molecular target: T1, G6B-b dual phosphopeptide pY211/pY237 (Homo sapiens, UniProt O95866, pY211+pY237)
T1 chain: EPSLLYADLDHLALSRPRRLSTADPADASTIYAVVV
Assay: SPR

B1: SHP-1 tandem SH2 (protein)
chain: WFHRDLSGLDAETLLKGRGVHGSFLARPSRKNQGDFSLSVRVGDQVTHIRIQNSGDFYDLYGGEKFATLTELVEYYTQQQGVLQDRDGTIIHLKYPLNCSDPTSERWYHGHMSGGQAETLLQAKGEPWTFLVRESLSQPGDFVLSVLSDQPKAGPGSPLRVTHIKVMCEGGRYTVGGLETFDSLTDLVEHFKKTGIEEASGAFVYLRQPY
How did the Kd turn out when B1 was run?
The Kd was 35.3 nM.
